The values below come from PMC2267215.

The stoichiometry N is a count of units in the complex or per binding partner. As usually defined, the Kd is the equilibrium constant for the complex coming apart.

The target of experiment [1] is NCAM 1FN3–2FN3 M610R mutant (human). Kind of experiment: SEC; size-exclusion chromatography of the purified NCAM 1FN3–2FN3 proteins; data not shown. (In general: Size exclusion chromatography separates by hydrodynamic size, large species first.)
For experiment [2], the target named is FGFR1 D2-D3 (Homo sapiens) (UniProt P11362). To be noted: cited from earlier work.
Experiment [3] addresses NCAM 1FN3–2FN3 (wild-type FN3 domain tandem of human neural cell adhesion molecule) (human). Kind of experiment: SPR; Biacore 3000, 25 °C; NCAM 1FN3–2FN3 proteins amine-coupled to a CM4 chip (1800 RU wild type, 1900 RU M610R); analytes FGFR1 D1–D3 or D2–D3 at 1–100 μM; HBS-EP running buffer, analytes in PBS; KD estimated from plateau values at equilibrium, very approximate.

The target of experiment [4] is NCAM 1FN3–2FN3 Y672E mutant (human). Kind of experiment: SEC; size-exclusion chromatography of the purified NCAM 1FN3–2FN3 proteins; data not shown.
The target in experiment [5] is NCAM 1FN3–2FN3 R690E mutant (human). The description is as above.

Bounds are passed on as bounds.

With “NCAM 1FN3–2FN3 M610R mutant (domain or fragment)”, the stoichiometry N in experiment [1] amounted to 2.

Regarding NCAM 1FN3-2FN3 (from UniProt P13591), the Kd in experiment [2] is 10 µM.

On to “FGFR1 D2–D3 (soluble ectodomain construct of fibroblast growth factor receptor 1, residues 151–364) (from UniProt P11362 151-364) (domain or fragment)”, for which the Kd in experiment [3] was over 100 µM.

“NCAM 1FN3–2FN3 Y672E mutant (domain or fragment)”: the stoichiometry N in experiment [4] amounted to 2.

For “NCAM 1FN3–2FN3 R690E mutant (domain or fragment)”, the stoichiometry N in experiment [5] is 2.
